{"source": "patent US4327178A", "about": "“Urinary kallikrein assay: specific substrates and assay method” (University of Miami, priority 1981, dated 1982)", "tested_on": "T1, N=C(N)NCCC[C@H](NC(=O)[C@H](Cc1ccccc1)NC(=O)[C@@H]1CCCN1)C(=O)NCc1ccccc1", "T1 construct": "dialyzed or gel-filtered human urine in the general A1 assay", "experiment": "Km and Vmax of substrates with purified human urinary kallikrein (Lineweaver-Burk double reciprocal plot)", "type": "biochemical", "conditions": "other: 62.5 ng purified enzyme, 0.05 M tris-HCl pH 9.5, 37° C., 15 minutes", "experimental": "The double reciprocal plot method of H. Lineweaver and D. Burk (J.Am.Chem.Soc. 56, 658 (1934)) was used to estimate Km and Vmax for these substrates. Purified human urinary kallikrein prepared as described by Oza, N. B. and Ryan, J., supra, was used in this study. Reactions were conducted at 37° C. for 15 minutes with 62.5 ng of enzyme and the indicated amount of substrate, in 0.05 M tris-HCl pH 9.5. Reactions were terminated by the addition of a nine-fold excess of 0.1 N NaOH. The ^3 H-labeled product was separated from substrate by extraction with an equal volume (1 ml) of toluene. A 0.5 ml aliquot of the toluene phase was transferred to a scintillation vial containing a toluene-based scintillation fluid and counted. Results for H-ProPheArg-[^3 H]-benzylamide are shown in FIG. 1, and for H-ProPheArg-[^3 H]anilide in FIG. 2. The units of l/v were nmol^-1 min. Units of l/S were μmole^-1.liter.", "data": [{"substance": "human urinary kallikrein (Homo sapiens)", "values": [{"measurement": "Km", "value": 3.0, "unit": "µM"}, {"measurement": "Vmax", "value": 0.88, "unit": "mmol/min/mg"}]}]}
